The target in experiment [1] is T1, human DLL4 extracellular domain (human, UniProt Q9NR61 27-529).
T1 construct: extracellular domain; coated on plates in the sVEGFR1 assay; also called huDLL4 ECD; Human DLL4 ECD
Description: Biacore SPR.
Description: (§1) The BIACORE® surface plasmon resonance assay (Biacore, Inc., Piscataway, N.J., US) determines the affinity of antibodies with kinetic measurements of on-rate and off-rate constants. Binding of DLL4 antibodies to a purified recombinant DLL4 extracellular domain is determined by surface plasmon resonance-based measurements with a Biacore® instrument (either a Biacore 2000, Biacore 3000, or Biacore T100, GE Healthcare, Piscataway, N.J. US) using running buffer HBS-EPB (10 mM HEPES [pH 7.4], 150 mM NaCl, 3 mM EDTA, 0.1 mg/ml BSA and 0.005% surfactant P20) at 25° C. For example, approximately 9000 RU of goat anti-human Fc specific polyclonal antibody (Thermo Fisher Scientific Inc., Rockford, Ill., US) diluted in 10 mM sodium acetate (pH 4.5) is directly immobilized across a CM5 research grade biosensor chip using a standard amine coupling kit according to manufacturer's instructions and procedures at 25 μg/ml. Unreacted moieties on the biosensor surface are blocked with ethanolamine. For kinetic analysis, rate equations derived from the 1:1 Langmuir binding model are fitted simultaneously to multiple antigen injections (using global fit analysis) with the use of Scrubber 2 (BioLogic Software). […] The equilibrium dissociation constant KD (M) of the reaction between antibodies and the target antigen is then calculated from the kinetic rate constants by the following formula: KD=Koff/Kₒₙ. Binding is recorded as a function of time and kinetic rate constants are calculated. In this assay, on-rates as fast as 10⁶ M⁻¹s⁻¹ and off-rates as slow as 10⁻⁶ s⁻¹ can be measured.

For experiment [2], the target named is T2, mouse DLL4 extracellular domain (mouse, UniProt Q9JI71 27-532).
T2 construct: extracellular domain; also called muDLL4 ECD; Mouse DLL4 ECD
Description: Biacore SPR. On the technique in general: SPR reads the build-up and loss of mass on a sensor chip optically.
Description: as §1

Experiment [3] has as its target T3, human DLL4-his (human, UniProt Q9NR61 27-529).
T3 construct: extracellular domain
Description: ELISA on DLL4-his. (ELISA stands for enzyme-linked immunosorbent assay.)
Description: After the final wash, plates were incubated with 100 μl/well ELISA substrate (Sigma # T8665). The reaction was stopped after 8 minutes at 25° C. with 100 μl/well 1N HCl and the absorbance was read at 450 nm. Data were analyzed using Graphpad Prism software and EC50 values were reported.

Experiment [4] has as its target T4, mouse DLL4-his (mouse, UniProt Q9JI71 27-532).
T4 construct: extracellular domain; not shown: his tag
Description: ELISA on DLL4-his.

In experiment [5] the target is T5, human DLL4 on the cell surface (human, UniProt Q9NR61 27-685).
T5 construct: whole, on cells; also called HEK293-hDLL4; hDLL4-293G
Description: FACS on DLL4 cells.
Description: (§2) Stable cell lines overexpressing cell-surface DLL4 were harvested from tissue culture flasks, washed four times and resuspended in phosphate buffered saline (PBS) containing 1% bovine serum albumin and 1 mM CaCl₂ (FACS buffer), 1.5×10³ cells were incubated with antibodies at various concentrations in FACS buffer for 60 minutes on ice. Cells were washed twice and 50 μL of R-phycoerythrin-conjugated anti-rat IgG. […] Following an incubation on ice (4° C., 60 minutes), cells were washed three times and resuspended in FACS buffer. Fluorescence was measured using a Becton Dickinson FACSCalibur-HTS (Becton Dickinson, San Jose. Calif., US). Data were analyzed using Graphpad Prism software and EC₅₀ values were reported as the concentration of antibody to achieve 50% of maximal DLL4 antibodies binding to DLL4 expressing cells.

For experiment [6], the target named is T6, mouse DLL4 on the cell surface (mouse, UniProt Q9JI71 27-686).
T6 construct: whole, on cells; also called HEK293-mDLL4; mDLL4-293G
Kind of experiment: FACS on DLL4 cells.
Description: as §2

In experiment [7] the target is T5, human DLL4 on the cell surface. Kind of experiment: competition FACS, competitor huNotch-1.
Description: (§3) Notch blocking assay: Briefly, stable cell lines overexpressing cell-surface DLL4 were harvested from tissue culture flasks and re-suspended in phosphate buffered saline (PBS) containing 1% bovine serum albumin and 1 mM CaCl₂ (FACS buffer). HEK293-hDLL4 or HEK293-mDLL4 cells were dispensed into 96-well plate (v-bottom) at 1.5×10⁵ cells/well in FACS buffer. […] After washing the cells two times with FACS buffer, 50 μL of R-phycoerythrin-conjugated streptavidin (1:150 dilution in FACS buffer) (Jackson ImmunoResearch, West Grove, Pa., US, catalog no. 016-110-084) were added. Following an incubation on ice (4° C., 60 minutes), cells were washed three times and resuspended in FACS buffer. Fluorescence was measured using a Becton Dickinson FACSCalibur-HTS (Becton Dickinson, San Jose. Calif.).
The target in experiment [8] is T6, mouse DLL4 on the cell surface. Kind of experiment: competition FACS, competitor huNotch-1.
Description: as §3
Experiment [9] deals with T1, human DLL4 extracellular domain. Kind of experiment: competition ELISA, competitor huNotch-1.
Description: (§4) Plates were then washed 3 times with wash buffer (PBS, 0.05% Tween-20) and blocked with 200 μl/well blocking buffer (D-PBS, 1% BSA, 1 mM CaCl₂, 0.05% Tween-20) for 1 hour at 25° C. […] Assay plates were washed after blocking, and incubated with DLL4/antibody mixtures (100 μl/well, 1 hour at 25° C. with shaking). […] After a final wash, plates were developed using 100 μl/well substrate (TMB Sigma # T8665), and the reaction was stopped after an 8-minute incubation at 25° C. (for muDLL4 ELISA) and after 20 minute incubation at 25° C. (for huDLL4 ELISA) using 100 μl/well 1N HCl, and the absorbance was read at 450 nm.
In experiment [10] the target is T2, mouse DLL4 extracellular domain. Kind of experiment: competition ELISA, competitor huNotch-1.
Description: as §4
For experiment [11], the target named is T1, human DLL4 extracellular domain. Description: Biacore SPR. This is another data set of the same source.
Experiment [12] has as its target T2, mouse DLL4 extracellular domain. Kind of experiment: Biacore SPR. This is another data set of the same source.
The target of experiment [13] is T1, human DLL4 extracellular domain. Description: capture ELISA.
Description: (§5) ELISA plates were washed 3 times with wash buffer (PBS, 0.05% Tween-20) and then blocked with 200 ml/well blocking buffer (D-PBS, 1% BSA, 1 mM CaCl₂, 0.05% Tween-20) for 1 hour at 25° C. Plates were washed 3 times and incubated with 100 μl/well DLL4 antibodies (0.0001-100 nM, 10-fold serial dilution in blocking buffer) for 1 hour at 25° C., and then washed again 3 times. […] The reaction was stopped after 2 minutes at 25° C. with 100 μl/well 2 N H2SO₄ and the absorbance was read at 450 nm. Data were analyzed using Graphpad Prism software and EC₅₀ values were reported.
Experiment [14] concerns the target T2, mouse DLL4 extracellular domain. Description: capture ELISA.
Description: as §5
Experiment [15] deals with T5, human DLL4 on the cell surface. Kind of experiment: FACS on DLL4 cells. The source holds these as a separate data set.
Experiment [16] has as its target T6, mouse DLL4 on the cell surface. Description: FACS on DLL4 cells. This is another data set of the same source.
Experiment [17] deals with T5, human DLL4 on the cell surface. Description: cell-based or functional assay.
For experiment [18] the target is unchanged. Kind of experiment: competition FACS, competitor huNotch-1. The source holds these as a separate data set.
The target in experiment [19] is T6, mouse DLL4 on the cell surface. Kind of experiment: competition FACS, competitor huNotch-1. This is another data set of the same source.
The target in experiment [20] is T1, human DLL4 extracellular domain. Kind of experiment: competition ELISA, competitor huNotch-1. This is another data set of the same source.
Description: as §4
Experiment [21] deals with T2, mouse DLL4 extracellular domain. Kind of experiment: competition ELISA, competitor huNotch-1. The source holds these as a separate data set.
Description: as §4
The target in experiment [22] is T1, human DLL4 extracellular domain. Kind of experiment: Biacore SPR. This is another data set of the same source.
Description: (§6) Binding of DLL4 antibodies to a purified recombinant DLL4 extracellular domain is determined by surface plasmon resonance-based measurements with a Biacore® instrument (either a Biacore 2000, Biacore 3000, or Biacore T100, GE Healthcare, Piscataway, N.J. US) using running buffer HBS-EPB (10 mM HEPES [pH 7.4], 150 mM NaCl, 3 mM EDTA, 0.1 mg/ml BSA and 0.005% surfactant P20) at 25° C. For example, approximately 9000 RU of goat anti-human Fc specific polyclonal antibody (Thermo Fisher Scientific Inc., Rockford, Ill., US) diluted in 10 mM sodium acetate (pH 4.5) is directly immobilized across a CM5 research grade biosensor chip using a standard amine coupling kit according to manufacturer's instructions and procedures at 25 μg/ml. Unreacted moieties on the biosensor surface are blocked with ethanolamine. For kinetic analysis, rate equations derived from the 1:1 Langmuir binding model are fitted simultaneously to multiple antigen injections (using global fit analysis) with the use of Scrubber 2 (BioLogic Software). […] The equilibrium dissociation constant KD (M) of the reaction between antibodies and the target antigen is then calculated from the kinetic rate constants by the following formula: KD=Koff/Kₒₙ. Binding is recorded as a function of time and kinetic rate constants are calculated. In this assay, on-rates as fast as 10⁶ M⁻¹s⁻¹ and off-rates as slow as 10⁻⁶ s⁻¹ can be measured.
In experiment [23] the target is T2, mouse DLL4 extracellular domain. Kind of experiment: Biacore SPR. This is another data set of the same source.
Description: as §6
Experiment [24] addresses T7, rat DLL4 extracellular domain (rat, UniProt D3ZHH1 28-530).
T7 construct: extracellular domain; also called ratDLL4 ECD
Kind of experiment: Biacore SPR.
Description: as §6

The target of experiment [25] is T1, human DLL4 extracellular domain. Kind of experiment: capture ELISA. This is another data set of the same source.
Description: as §5
The target in experiment [26] is T5, human DLL4 on the cell surface. Kind of experiment: FACS on DLL4 cells. The source holds these as a separate data set.
Description: as §2
The target in experiment [27] is T1, human DLL4 extracellular domain. Description: cell-based or functional assay.
In experiment [28] the target is T5, human DLL4 on the cell surface. Kind of experiment: cell-based or functional assay. The source holds these as a separate data set.
Experiment [29] shares this target. Kind of experiment: competition FACS, competitor huNotch-1. This is another data set of the same source.
Description: as §3
Experiment [30] concerns the target T1, human DLL4 extracellular domain. Description: competition ELISA, competitor huNotch-1. The source holds these as a separate data set.
Description: as §4

Like-named read-outs stand apart in the source and are kept apart here.

T6 sequence (Q9JI71 27-686): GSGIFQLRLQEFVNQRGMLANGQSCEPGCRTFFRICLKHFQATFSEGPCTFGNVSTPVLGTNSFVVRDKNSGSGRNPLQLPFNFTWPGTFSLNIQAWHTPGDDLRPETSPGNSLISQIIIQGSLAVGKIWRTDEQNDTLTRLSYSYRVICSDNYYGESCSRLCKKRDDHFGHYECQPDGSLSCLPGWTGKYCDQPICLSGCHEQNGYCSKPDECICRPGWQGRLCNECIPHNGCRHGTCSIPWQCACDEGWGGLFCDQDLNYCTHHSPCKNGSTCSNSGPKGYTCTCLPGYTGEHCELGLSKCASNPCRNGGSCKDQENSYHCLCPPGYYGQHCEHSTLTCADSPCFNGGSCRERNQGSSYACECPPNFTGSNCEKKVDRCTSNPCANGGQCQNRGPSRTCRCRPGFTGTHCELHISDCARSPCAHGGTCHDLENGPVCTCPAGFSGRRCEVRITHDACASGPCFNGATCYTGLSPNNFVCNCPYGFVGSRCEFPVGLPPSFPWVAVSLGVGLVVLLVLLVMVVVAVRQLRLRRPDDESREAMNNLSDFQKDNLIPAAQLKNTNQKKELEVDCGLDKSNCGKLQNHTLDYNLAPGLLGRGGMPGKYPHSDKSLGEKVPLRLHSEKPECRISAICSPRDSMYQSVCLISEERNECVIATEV
T2 sequence (Q9JI71 27-532): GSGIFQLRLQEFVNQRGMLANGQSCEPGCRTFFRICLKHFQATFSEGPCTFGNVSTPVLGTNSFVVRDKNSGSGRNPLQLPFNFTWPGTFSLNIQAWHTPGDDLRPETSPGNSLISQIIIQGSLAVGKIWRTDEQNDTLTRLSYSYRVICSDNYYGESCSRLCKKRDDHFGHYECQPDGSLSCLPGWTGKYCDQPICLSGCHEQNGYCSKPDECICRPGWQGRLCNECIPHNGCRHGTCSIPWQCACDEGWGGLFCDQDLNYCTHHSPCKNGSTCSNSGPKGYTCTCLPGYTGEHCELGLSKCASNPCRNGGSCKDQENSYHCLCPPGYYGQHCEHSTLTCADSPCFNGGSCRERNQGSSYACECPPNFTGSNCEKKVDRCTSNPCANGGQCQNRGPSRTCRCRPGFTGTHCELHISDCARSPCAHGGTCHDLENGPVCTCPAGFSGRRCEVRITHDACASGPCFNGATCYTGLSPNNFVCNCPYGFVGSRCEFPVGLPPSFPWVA
T4 sequence (Q9JI71 27-532): as above
T7 sequence (D3ZHH1 28-530): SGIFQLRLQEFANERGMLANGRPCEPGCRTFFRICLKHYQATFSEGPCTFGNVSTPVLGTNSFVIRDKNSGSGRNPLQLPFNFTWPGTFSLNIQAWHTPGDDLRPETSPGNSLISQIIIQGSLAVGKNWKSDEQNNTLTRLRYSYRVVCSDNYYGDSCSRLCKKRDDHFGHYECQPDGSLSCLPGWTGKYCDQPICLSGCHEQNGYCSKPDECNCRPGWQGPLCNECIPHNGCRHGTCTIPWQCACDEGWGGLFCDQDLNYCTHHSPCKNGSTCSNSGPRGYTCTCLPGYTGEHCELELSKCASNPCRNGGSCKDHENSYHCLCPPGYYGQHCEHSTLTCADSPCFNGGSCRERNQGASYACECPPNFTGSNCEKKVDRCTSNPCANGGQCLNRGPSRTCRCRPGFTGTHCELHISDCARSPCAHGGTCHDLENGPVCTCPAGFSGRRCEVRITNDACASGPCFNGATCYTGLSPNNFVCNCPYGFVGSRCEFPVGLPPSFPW

B1: E9-FR2 (antibody, V domains shown)
VH: EVTLRESGPALVKPTQTLTLTCTVSGGSISSSSYYWGWIRQPPGKGLEWIGDIYYTGSTYYNPSLKSRVTISVDTSKNQFVLTMTNMDPVDTATYYCAREDVILRGGSDYWGQGTTVTVSS
VL: DYVLTQSPDSLAVSLGERATINCSGQRLGDKYASWYQQKPGQSPKLVIYEDSKRPSGIPDRFSGSNSGDDATLTISSLQAEDVAVYYCQAWDRDTGVFGGGTKVEIKR
notes: full-length human IgG1
With B1, the dissociation constant Kd in experiment [1] stood at 0.31 nM; in experiment [2] it was 0.69 nM; in [5] it was 6.2 nM; in experiment [6], 3.57 nM. Besides, the EC50 in experiment [3] turned out to be 0.105 nM; in [4], 0.125 nM. In addition, the 50% inhibitory concentration (IC50) in [7] stood at 3.03 nM; in [8], 1.07 nM; in [9], 1.52 nM; in experiment [10], 4.35 nM.

B2: E9-FR1 (antibody, V domains shown)
VH: EVQLVQSGTEVKKPGESLKISCKVSGGSISSSSYYWGWIRQMPGKGLEWIGDIYYTGSTYYNPSLKSQVTISVDTSFNTFFLQWSSLKASDTAMYYCAREDVILRGGSDYWGQGTMVTVSS
VL: EYVLTQSPATLSVSPGERATLSCSGQRLGDKYASWYQQKPGQSPRLVIYEDSKRPSDIPARFSGSNSGDEATLTISSLQSEDFAVYYCQAWDRDTGVFGQGTRLEIKR
notes: full-length human IgG1
Regarding B2, the dissociation constant (Kd) in experiment [1] stood at 0.72 nM; in experiment [2], 1.6 nM; in experiment [5] it was 4 nM; in [6], 2.51 nM. Moreover, the figures for the EC50 in experiment [3] and in [4] were 0.11 nM and 0.13 nM, respectively. Also, the IC50 in [7] turned out to be 1.57 nM; in experiment [8] it was 0.98 nM; in [9] it was 1.54 nM; in [10], 3.35 nM.

B3: E9.19 (antibody, V domains shown)
VH: EVQLQESGPGLVKPSETLSLTCTVSGGSISSSSYYWGWIRQPPGKGLEWIGDIYYTGSTYYNPSLKSRVTISVDTSKNQFSLKLSSVTAADTAVYYCARFDVSLGGGSDTWGQGTLVTVSS
VL: SYELTQPPSVSVSPGQTASITCSGQRLGDKYASWYQQKPGQSPVLVIYEDSKRPSGIPERFSGSNSGDTATLTISGTQPMDEADYYCQAWDRDTGVFGYGTKVTVL
notes: also called DLL4-E9-19 hIgG1/L
On to B3, for which the Kd in [11] amounted to 0.69 nM; in experiment [12] it was 3.07 nM. Further, the off-rate constant (koff) in experiment [11] stood at 5.17e-05 s⁻¹; in experiment [12], 0.000206 s⁻¹. Besides, the kon came out at 74900 M⁻¹ s⁻¹ in [11] and 67000 M⁻¹ s⁻¹ in experiment [12]. Besides, the EC50 turned out to be 0.17 nM in experiment [13], 0.17 nM in [14], 2.79 nM in [15] and 0.54 nM in experiment [16]. In [17], the “Inhibition of Notch activation via huDLL4 cells, coculture (IC50, nM)” value (shortened to “Inhibition … coculture (IC50, nM)”) amounted to 4.4 nM. Further, the IC50 came to 4.9 nM in experiment [18], 0.44 nM in experiment [19], 1.8 nM in experiment [20] and 1.3 nM in [21].

B4: E9.2B (antibody, V domains shown)
VH: EVQLQESGPGLVKPSETLSLTCTVSGGSISSSNYYWGWIRQPPGKGLEWIGDINYNGNTYYNPSLKSRVTISVDTSKNQFSLKLSSVTAADTAVYYCAREAVALGGGADDWGQGTLVTVSS
VL: SYELTQPPSVSVSPGQTASITCSGEGLGDKYVSWYQQKPGQSPVLVIYEDSTRPSGIPERFSGSNSGDTATLTISGTQPMDEADYYCQAWDSETGVFGSGTKVTVL
B4 had a Kd in experiment [11] of 0.02 nM. In experiment [11], this molecule had an off-rate (koff) of 7.9e-06 s⁻¹. Besides, in experiment [11], the kon stood at 356000 M⁻¹ s⁻¹. The EC50 in experiment [13] worked out at 0.16 nM; in experiment [14], 0.16 nM; in experiment [15], 1.78 nM; in experiment [16], 0.35 nM. For the same molecule, the “Inhibition … coculture (IC50, nM)” value in experiment [17] is 2.1 nM. In addition, the IC50 in experiment [18] came out at 2.63 nM; in experiment [19], 0.34 nM; in experiment [20] it was 2.3 nM; in experiment [21], 2.8 nM.

B5: E9.71 (antibody, V domains shown)
VH: EVQLQESGPGLVKPSETLSLTCTVSGGSISSSSYYWGWIRQPPGKGLEWIGDIYYTGSTYYNPSLKSRVTISVDTSKNQFSLKLSSVTAADTAVYYCARQALAMGGGSDKWGQGTLVTVSS
VL: SYELTQPPSVSVSPGQTASITCSGQRLGDKYASWYQQKPGQSPVLVIYEDSKRPSGIPERFSGSNSGDTATLTISGTQPMDEADYYCQAWDRDTGVFGYGTKVTVL
notes: also called DLL4-E9-71 hIgG1/L
Turning to B5, the equilibrium dissociation constant (Kd) in experiment [11] stood at 0.91 nM; in [12] it was 6.08 nM. Moreover, the figures for the koff in [11] and in experiment [12] were 3.51e-05 s⁻¹ and 0.000216 s⁻¹, respectively. Besides, the figures for the kon in [11] and in experiment [12] were 38800 M⁻¹ s⁻¹ and 35500 M⁻¹ s⁻¹, respectively. Besides, the 50% effective concentration (EC50) in experiment [13] came out at 0.16 nM; in experiment [14] it was 0.17 nM; in experiment [15], 1.82 nM; in experiment [16], 0.32 nM. The “Inhibition … coculture (IC50, nM)” value in experiment [17] turned out to be 2.1 nM. For the same molecule, the concentration for half-maximal inhibition (IC50) in [18] worked out at 3.22 nM; in experiment [19], 0.24 nM; in [20], 2 nM; in experiment [21] it was 1.3 nM.

B6: A10 (antibody, IgG1, V domains shown)
VH: EVQLLESGGGLVKSGGSLRLSCAASGFTFRSHWMSWVRQAPGKGLEWVAIISYDGSNKYSADSVKGRFTISRDNSKNTLYLQLNSLRAEDTAVYYCAKAGGGNVGFDIWGQGTMVTVSS
VL: LPVLTQPPSVSVSPGQTASITCSADKLGTKYVSWYQQKPGQSPVLVIYQDAKRPSGIPERFSGSNSGNTATLTISGTQTMDEADYLCQSWDRSDVVFGGGTKVTVL
notes: also called anti-DLL4 PROfusion antibody A10
B6 yielded a Kd in experiment [22] of 6.68 nM. Moreover, the off-rate (koff) in experiment [22] turned out to be 0.00015 s⁻¹. In [22], this molecule yielded an association rate constant (kon) of 22000 M⁻¹ s⁻¹. Besides, the binding result in experiment [23] and in [24] was “no binding (tested: 900 nM DLL4)” in each case. Further, the values for the concentration giving a half-maximal response (EC50) in experiment [25] and in experiment [26] were 0.17 nM and 0.93 nM, respectively. Also, the “sVEGFR1 Inhibition (IC50, nM) DLL4 ECD/EaHy cells, hu” value in experiment [27] stood at 1.5 nM. Moreover, the “Inhibition … coculture (IC50, nM)” value in experiment [28] turned out to be 7.3 nM. For the same molecule, the IC50 in [29] amounted to 4.4 nM; in experiment [30], 2.6 nM.

As usually defined, the Kd is a measure of binding affinity in units of concentration. A high value points to a looser complex. A word on the EC50: it is the concentration at which the effect is half-maximal. Low readings indicate an effect from little substance, high ones a need for much substance. The term IC50 denotes the concentration that gives 50% inhibition. A word on the koff: it is the rate constant with which the complex falls apart. Higher therefore signals a short-lived complex. The kon is a measure of how fast the partners come together. Low readings indicate slow association, high ones fast association.
